Biological target: lectin-like oxidized LDL receptor 1 (LOX1) on bEnd.3 cells (mouse (endogenous in bEnd.3)) (UniProt Q9EQ09)
UniProt Q9EQ09, sequence (Q9EQ09 whole entry): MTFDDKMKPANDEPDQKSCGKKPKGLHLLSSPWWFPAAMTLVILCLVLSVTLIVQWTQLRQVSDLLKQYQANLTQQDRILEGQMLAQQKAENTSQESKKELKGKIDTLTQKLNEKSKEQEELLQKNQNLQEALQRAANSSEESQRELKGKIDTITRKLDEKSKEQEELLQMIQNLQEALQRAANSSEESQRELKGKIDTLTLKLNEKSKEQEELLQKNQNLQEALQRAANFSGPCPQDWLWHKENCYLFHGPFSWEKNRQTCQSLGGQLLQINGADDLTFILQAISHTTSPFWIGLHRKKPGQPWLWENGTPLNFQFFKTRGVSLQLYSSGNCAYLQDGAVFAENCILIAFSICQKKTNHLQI

decrease in uptake of DiI-labeled acro-apoE3/rHDL (3 µg/mL) by bEnd.3 cells pre-treated with anti-LOX1 antibody: 80 % decrease
Substance: Acrolein-modified apolipoprotein E3 (acro-apoE3) (from UniProt P02649 19-317) (natural protein)
